Data: patent US20240317847A1 (Bayer, published 2024)

T1: human IL-11 (human, UniProt P20809 22-199)
T1 construct: bought from Invigate; also called hIL-11; hIL11
T1 sequence: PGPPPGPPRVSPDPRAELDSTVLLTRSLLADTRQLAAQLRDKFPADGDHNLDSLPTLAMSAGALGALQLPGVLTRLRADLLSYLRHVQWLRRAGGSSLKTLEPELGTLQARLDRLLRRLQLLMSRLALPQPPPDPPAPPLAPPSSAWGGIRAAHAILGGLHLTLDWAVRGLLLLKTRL

T2: murine IL-11 (mouse, UniProt P47873 22-199)
T2 construct: bought from Invigate; also called mIL-11; mIL11
T2 sequence: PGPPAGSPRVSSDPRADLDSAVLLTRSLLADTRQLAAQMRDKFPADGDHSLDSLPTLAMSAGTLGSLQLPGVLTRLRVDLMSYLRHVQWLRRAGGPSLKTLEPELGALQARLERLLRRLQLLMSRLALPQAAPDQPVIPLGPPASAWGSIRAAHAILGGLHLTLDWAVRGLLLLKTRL


Legend:
[1] = biological target: T1, human IL-11; assay: SPR, antibody captured, IL-11 as analyte
Procedure: (§1) Antibodies were captured via anti-mouse Fc IgGs (“Mouse antibody capture kit, Order No. BR100383, Cytiva) covalently amine coupled to a Series S CM5 sensor chip (Cytiva). The amine coupling was carried out according to the manufacturer's instructions using 1-ethyl-3-(3-dimethylaminopropyl) carbodiimide hydrochloride (EDC), N-hydroxysuccinimide (NHS) and ethanolamine HCl, pH 8.5 (“Amine Coupling Kit” BR-1000-50, Cytiva.). Human IL-11 (Invigate, e.g., lot #C121021-19), and murine IL-11 (Invigate, e.g., lot #C210819-09) were used as analytes. […] Based on that experiment an IL-11 concentration range was chosen to optimally determine kinetics and affinity of anti-IL-11 antibodies in multicycle kinetics mode. The sensor surface was regenerated with glycine pH 1.7 after each antigen injection. Obtained sensorgrams were double referenced (subtraction of reference flow cell signal and buffer injection) and were fitted to a 1:1 Langmuir binding model to derive kinetic data using the Biacore T200 Evaluation software or the Biacore Insight software.
(§2) 42 hits from the IL-11 and […] screening analysis were selected, expressed by transient transfection of mammalian cells and purified as described in Example 15. Antibodies were then tested for human IL-11 and murine IL-11 binding by SPR as described in Example 16.

[2] = biological target: T2, murine IL-11; assay: SPR, antibody captured, IL-11 as analyte
Procedure: as §1, §2

Row | Binder | Kd [1] [nM] | Kd [2] [nM]
1 | TPP-26304 (antibody, V domains shown, constant regions not restated) VH: EVQLLESGGGLVQPGGSLRLSCAASGFTFSSYGMHWVRQAPGKGLEWVSVISYDGSYKYYADSVKGRFTISRDNSKNTLYLQMNSLRAEDTAVYYCAAGVPDYWGQGTLVTVSS VL: QSVLTQPPSASGTPGQRVTISCTGSSSNIWAGYDVHWYQQLPGTAPKLLIYSNNERPSGVPDRFSGSKSGTSASLAISGLRSEDEADYYCAAWDDSLNGPVFGGGTKLTVL | 12 | 0.64
2 | TPP-26321 (antibody, V domains shown, constant regions not restated) VH: EVQLLESGGGLVQPGGSLRLSCAASGFTFSSYGMHWVRQAPGKGLEWVSVISYDGSYKYYADSVKGRFTISRDNSKNTLYLQMNSLRAEDTAVYYCAAGVPDYWGQGTLVTVSS VL: QSVLTQPPSASGTPGQRVTISCTGSSSNIGAGYDVHWYQQLPGTAPKLLIYSNNERPSGVPDRFSGSKSGTSASLAISGLRSEDEADYYCAAWDLSLNGPVFGGGTKLTVL | 9.3 | 0.94
3 | TPP-26314 (antibody, V domains shown, constant regions not restated) VH: EVQLLESGGGLVQPGGSLRLSCAASGFTFSSYGMHWVRQAPGKGLEWVSVISYDGSYKYYADSVKGRFTISRDNSKNTLYLQMNSLRAEDTAVYYCAAGVPDYWGQGTLVTVSS VL: QSVLTQPPSASGTPGQRVTISCTGSSSNIGAGYDVHWYQQLPGTAPKLLIYSNNERPSGVPDRFSGSKSGTSASLAISGLRSEDEADYYCAAWDWSLNGPVFGGGTKLTVL | 8.3 | 0.56
4 | TPP-26315 (antibody, V domains shown, constant regions not restated) VH: EVQLLESGGGLVQPGGSLRLSCAASGFTFSSYGMHWVRQAPGKGLEWVSVISYDGSYKYYADSVKGRFTISRDNSKNTLYLQMNSLRAEDTAVYYCAAGVPDYWGQGTLVTVSS VL: QSVLTQPPSASGTPGQRVTISCTGSSSNIGAHYDVHWYQQLPGTAPKLLIYSNNERPSGVPDRFSGSKSGTSASLAISGLRSEDEADYYCAAWDDSLNGPVFGGGTKLTVL | 14 | 0.95
5 | TPP-26320 (antibody, V domains shown, constant regions not restated) VH: EVQLLESGGGLVQPGGSLRLSCAASGFTFSSYGMHWVRQAPGKGLEWVSVISYDGSYKYYADSVKGRFTISRDNSKNTLYLQMNSLRAEDTAVYYCAAGVPDYWGQGTLVTVSS VL: QSVLTQPPSASGTPGQRVTISCTGSSSNIGAGYDVHWYQQLPGTAPKLLIYSNEERPSGVPDRFSGSKSGTSASLAISGLRSEDEADYYCAAWDDSLNGPVFGGGTKLTVL | 13 | 0.83
6 | TPP-26309 (antibody, V domains shown, constant regions not restated) VH: EVQLLESGGGLVQPGGSLRLSCAASGFTFSSYGMHWVRQAPGKGLEWVSVISYDGSYKYYADSVKGRFTISRDNSKNTLYLQMNSLRAEDTAVYYCAAGVPDYWGQGTLVTVSS VL: QSVLTQPPSASGTPGQRVTISCTGSSSNIGAGYDVHWYQQLPGTAPKLLIYSNNERPSGVPDRFSGSKSGTSASLAISGLRSEDEADYYCAAWDFSLNGPVFGGGTKLTVL | 8.2 | 0.8
7 | TPP-26324 (antibody, V domains shown, constant regions not restated) VH: EVQLLESGGGLVQPGGSLRLSCAASGFTFSSYGMHWVRQAPGKGLEWVSVISYDGSYKYYRDSVKGRFTISRDNSKNTLYLQMNSLRAEDTAVYYCAAGVPDYWGQGTLVTVSS VL: QSVLTQPPSASGTPGQRVTISCTGSSSNIGAGYDVHWYQQLPGTAPKLLIYSNNERPSGVPDRFSGSKSGTSASLAISGLRSEDEADYYCAAWDDSLNGPVFGGGTKLTVL | 13 | 1.2
8 | TPP-26313 (antibody, V domains shown, constant regions not restated) VH: EVQLLESGGGLVQPGGSLRLSCAASGFTFSSYGMHWVRQAPGKGLEWVSVISYDGSYKYYADSVKGRFTISRDNSKNTLYLQMNSLRAEDTAVYYCAAGVPDYWGQGTLVTVSS VL: QSVLTQPPSASGTPGQRVTISCTGSSSNIGAYYDVHWYQQLPGTAPKLLIYSNNERPSGVPDRFSGSKSGTSASLAISGLRSEDEADYYCAAWDDSLNGPVFGGGTKLTVL | 9.1 | 0.46
9 | TPP-26310 (antibody, V domains shown, constant regions not restated) VH: EVQLLESGGGLVQPGGSLRLSCAASGFTFSSYGMHWVRQAPGKGLEWVSVISYDGSYKYYADSVKGRFTISRDNSKNTLYLQMNSLRAEDTAVYYCAAGVPDYWGQGTLVTVSS VL: QSVLTQPPSASGTPGQRVTISCTGSSSNIGAGYDVHWYQQLPGTAPKLLIYSNNERPWGVPDRFSGSKSGTSASLAISGLRSEDEADYYCAAWDDSLNGPVFGGGTKLTVL | 13 | 0.66
10 | TPP-26323 (antibody, V domains shown, constant regions not restated) VH: EVQLLESGGGLVQPGGSLRLSCAASGFTFSSYGMHWVRQAPGKGLEWVSVISYDGSYKYYADSVKGRFTISRDNSKNTLYLQMNSLRAEDTAVYYCAAGVPDYWGQGTLVTVSS VL: QSVLTQPPSASGTPGQRVTISCTGSSSNIGAGYDVHWYQQLPGTAPKLLIYSNNERPSGVPDRFSGSKSGTSASLAISGLRSEDEADYYCAAWDGSLNGPVFGGGTKLTVL | 10 | 0.58
11 | TPP-26317 (antibody, V domains shown, constant regions not restated) VH: EVQLLESGGGLVQPGGSLRLSCAASGFTFSSYGMHWVRQAPGKGLEWVSVISYDGSYKYYADSVKGRFTISRDNSKNTLYLQMNSLRAEDTAVYYCAAGVPDYWGQGTLVTVSS VL: QSVLTQPPSASGTPGQRVTISCTGSSSNIGAEYDVHWYQQLPGTAPKLLIYSNNERPSGVPDRFSGSKSGTSASLAISGLRSEDEADYYCAAWDDSLNGPVFGGGTKLTVL | 8.1 | 0.9
12 | TPP-26307 (antibody, V domains shown, constant regions not restated) VH: EVQLLESGGGLVQPGGSLRLSCAASGFTFSSYGMHWVRQAPGKGLEWVSVISYDGSYKYYADSVKGRFTISRDNSKNTLYLQMNSLRAEDTAVYYCAAGVPDYWGQGTLVTVSS VL: QSVLTQPPSASGTPGQRVTISCTGSSSNIGAGYDVHWYQQLPGTAPKLLIYSNNERPSGVPDRFSGSKSGTSASLAISGLRSEDEADYYCAAWDISLNGPVFGGGTKLTVL | 16 | 1.6
13 | TPP-26312 (antibody, V domains shown, constant regions not restated) VH: EVQLLESGGGLVQPGGSLRLSCAASGFTFSSYGMHWVRQAPGKGLEWVSVISYDGSYKYYADSVKGRFTISRDNSKNTLYLQMNSLRAEDTAVYYCAAGVPDYWGQGTLVTVSS VL: QSVLTQPPSASGTPGQRVTISCTGSSSNIGAGLDVHWYQQLPGTAPKLLIYSNNERPSGVPDRFSGSKSGTSASLAISGLRSEDEADYYCAAWDDSLNGPVFGGGTKLTVL | 10 | 0.8
14 | TPP-26308 (antibody, V domains shown, constant regions not restated) VH: EVQLLESGGGLVQPGGSLRLSCAASGFTFSSYGMHWVRQAPGKGLEWVSVISYDGSYKYYADSVKGRFTISRDNSKNTLYLQMNSLRAEDTAVYYCAAGVPDYWGQGTLVTVSS VL: QSVLTQPPSASGTPGQRVTISCTGSSSNIGAGYDVHWYQQLPGTAPKLLIYSNNERPSGVPDRFSGSKSGTSASLAISGLRSEDEADYYCAAWDVSLNGPVFGGGTKLTVL | 17 | 1.3
15 | TPP-26306 (antibody, V domains shown, constant regions not restated) VH: EVQLLESGGGLVQPGGSLRLSCAASGFTFSSYGMHWVRQAPGKGLEWVSVISYDGSYKYYADSVKGRFTISRDNSKNTLYLQMNSLRAEDTAVYYCAAGVPDYWGQGTLVTVSS VL: QSVLTQPPSASGTPGQRVTISCTGSSSNIGAGYDVHWYQQLPGTAPKLLIYSNNERPSGVPDRFSGSKSGTSASLAISGLRSEDEADYYCAAWDQSLNGPVFGGGTKLTVL | 12 | 0.65
16 | TPP-26318 (antibody, V domains shown, constant regions not restated) VH: EVQLLESGGGLVQPGGSLRLSCAASGFTFSSYGMHWVRQAPGKGLEWVSVISYDGSYKYYADSVKGRFTISRDNSKNTLYLQMNSLRAEDTAVYYCAAGVPDYWGQGTLVTVSS VL: QSVLTQPPSASGTPGQRVTISCTGSSSNIGAGYFVHWYQQLPGTAPKLLIYSNNERPSGVPDRFSGSKSGTSASLAISGLRSEDEADYYCAAWDDSLNGPVFGGGTKLTVL | 14 | 8.1
17 | TPP-26319 (antibody, V domains shown, constant regions not restated) VH: EVQLLESGGGLVQPGGSLRLSCAASGFTFSSYGMHWVRQAPGKGLEWVSVISYDGSYKYYADSVKGRFTISRDNSKNTLYLQMNSLRAEDTAVYYCAAGVPDYWGQGTLVTVSS VL: QSVLTQPPSASGTPGQRVTISCTGSSSNIGAGYDVHWYQQLPGTAPKLLIYSNNEKPSGVPDRFSGSKSGTSASLAISGLRSEDEADYYCAAWDDSLNGPVFGGGTKLTVL | 12 | 1.4
18 | TPP-26316 (antibody, V domains shown, constant regions not restated) VH: EVQLLESGGGLVQPGGSLRLSCAASGFTFSSYGMHWVRQAPGKGLEWVSVISYDGSYKYYADSVKGRFTISRDNSKNTLYLQMNSLRAEDTAVYYCAAGVPDYWGQGTLVTVSS VL: QSVLTQPPSASGTPGQRVTISCTGSSSNIGAGYDVHWYQQLPGTAPKLLIYSNNERPSGVPDRFSGSKSGTSASLAISGLRSEDEADYYCAAWDMSLNGPVFGGGTKLTVL | 8.4 | 0.72
